Results published in patent publication US11325966.

Key:
Test in all cases: cell-based or functional assay
[1] = biological target: HIV-1 Env of pseudovirus 231965.c01 (HIV-1)
[2] = biological target: HIV-1 Env of pseudovirus CNE52 (HIV-1)
[3] = biological target: HIV-1 Env of pseudovirus Ce1086_B2 (HIV-1)
[4] = biological target: HIV-1 Env of pseudovirus CNE20 (HIV-1)
[5] = biological target: HIV-1 Env of pseudovirus BJOX010000.06.2 (HIV-1)
[6] = biological target: HIV-1 Env of pseudovirus X1254_c3 (HIV-1)
[7] = biological target: HIV-1 Env of pseudovirus T257-31 (HIV-1)
[8] = biological target: HIV-1 Env of pseudovirus TRJO4551.58 (HIV-1)
[9] = biological target: HIV-1 Env of pseudovirus 1056_10_TA11_1826 (HIV-1)
[10] = biological target: HIV-1 Env of pseudovirus ZM249M.PL1 (HIV-1)
[11] = biological target: HIV-1 Env of pseudovirus T255-34 (HIV-1)
[12] = biological target: HIV-1 Env of pseudovirus T250-4 (HIV-1)
[13] = biological target: HIV-1 Env of pseudovirus REJO4541.67 (HIV-1)
[14] = biological target: HIV-1 Env of pseudovirus 3103.v3.c10 (HIV-1)
[15] = biological target: HIV-1 Env of pseudovirus ZM53M.PB12 (HIV-1)
[16] = biological target: HIV-1 Env of pseudovirus Q769.d22 (HIV-1)
[17] = biological target: HIV-1 Env of pseudovirus ZM214M.PL15 (HIV-1)
[18] = biological target: HIV-1 Env of pseudovirus 191955_A11 (HIV-1)
[19] = biological target: HIV-1 Env of pseudovirus 191821_E6_1 (HIV-1)
[20] = biological target: HIV-1 Env of pseudovirus WITO4160.33 (HIV-1)
[21] = biological target: HIV-1 Env of pseudovirus 211-9 (HIV-1)
[22] = biological target: HIV-1 Env of pseudovirus 6244_13_B5_4576 (HIV-1)
[23] = biological target: HIV-1 Env of pseudovirus Ce0393_C3 (HIV-1)
[24] = biological target: HIV-1 Env of pseudovirus C2101.c01 (HIV-1)
[25] = biological target: HIV-1 Env of pseudovirus R3265.c06 (HIV-1)
[26] = biological target: HIV-1 Env of pseudovirus TRO.11 (HIV-1)
[27] = biological target: HIV-1 Env of pseudovirus 6041.v3.c23 (HIV-1)
[28] = biological target: HIV-1 Env of pseudovirus 235-47 (HIV-1)
[29] = biological target: HIV-1 Env of pseudovirus 3301.v1.c24 (HIV-1)
[30] = biological target: HIV-1 Env of pseudovirus 6952.v1.c20 (HIV-1)
[31] = biological target: HIV-1 Env of pseudovirus THRO4156.18 (HIV-1)
[32] = biological target: HIV-1 Env of pseudovirus 249M B10 (HIV-1)
[33] = biological target: HIV-1 Env of pseudovirus Ce0682_E4 (HIV-1)
[34] = biological target: HIV-1 Env of pseudovirus Ce2060_G9 (HIV-1)
[35] = biological target: HIV-1 Env of pseudovirus X1193_c1 (HIV-1)
[36] = biological target: HIV-1 Env of pseudovirus Q461.e2 (HIV-1)
[37] = biological target: HIV-1 Env of pseudovirus X2131_C1_B5 (HIV-1)
[38] = biological target: HIV-1 Env of pseudovirus AC10.0.29 (HIV-1)
[39] = biological target: HIV-1 Env of pseudovirus 6545.v4.c1 (HIV-1)
[40] = biological target: HIV-1 Env of pseudovirus HIV-001428-2.42 (HIV-1)

PGT121 (antibody)
IC50 in TZM-bl assay [1]: > 10 µg/mL
IC80 in TZM-bl assay [1]: > 10 µg/mL
IC50 in TZM-bl assay [2]: 4.91 µg/mL
IC80 in TZM-bl assay [2]: > 10 µg/mL
IC50 in TZM-bl assay [3]: 0.003 µg/mL
IC50 in TZM-bl assay [4]: 0.003 µg/mL
IC80 in TZM-bl assay [4]: 0.006 µg/mL
IC50 in TZM-bl assay [5]: > 10 µg/mL
IC80 in TZM-bl assay [5]: > 10 µg/mL
IC80 in TZM-bl assay [6]: 0.085 µg/mL
IC50 in TZM-bl assay [7]: > 10 µg/mL
IC80 in TZM-bl assay [7]: > 10 µg/mL
IC50 in TZM-bl assay [8]: 0.802 µg/mL
IC80 in TZM-bl assay [8]: > 10 µg/mL
IC50 in TZM-bl assay [9]: 0.034 µg/mL
IC80 in TZM-bl assay [9]: 0.148 µg/mL
IC50 in TZM-bl assay [10]: > 10 µg/mL
IC80 in TZM-bl assay [10]: > 10 µg/mL
IC50 in TZM-bl assay [11]: 2.63 µg/mL
IC80 in TZM-bl assay [11]: > 10 µg/mL
IC50 in TZM-bl assay [12]: 0.003 µg/mL
IC80 in TZM-bl assay [12]: 0.009 µg/mL
IC50 in TZM-bl assay [13]: > 10 µg/mL
IC80 in TZM-bl assay [13]: > 10 µg/mL
IC50 in TZM-bl assay [14]: 0.024 µg/mL
IC80 in TZM-bl assay [14]: 0.073 µg/mL
IC50 in TZM-bl assay [15]: 0.001 µg/mL
IC80 in TZM-bl assay [15]: 0.005 µg/mL
IC50 in TZM-bl assay [16]: > 10 µg/mL
IC80 in TZM-bl assay [16]: > 10 µg/mL
IC50 in TZM-bl assay [17]: 0.288 µg/mL
IC80 in TZM-bl assay [17]: 2.46 µg/mL
IC50 in TZM-bl assay [18]: > 10 µg/mL
IC80 in TZM-bl assay [18]: > 10 µg/mL
IC50 in TZM-bl assay [19]: > 10 µg/mL
IC80 in TZM-bl assay [19]: > 10 µg/mL
IC50 in TZM-bl assay [20]: 0.301 µg/mL
IC80 in TZM-bl assay [20]: 3.2 µg/mL
IC50 in TZM-bl assay [21]: 0.866 µg/mL
IC80 in TZM-bl assay [21]: 6.63 µg/mL
IC50 in TZM-bl assay [22]: 0.172 µg/mL
IC80 in TZM-bl assay [22]: 1.47 µg/mL
IC50 in TZM-bl assay [23]: > 10 µg/mL
IC80 in TZM-bl assay [23]: > 10 µg/mL
IC50 in TZM-bl assay [24]: > 10 µg/mL
IC80 in TZM-bl assay [24]: > 10 µg/mL
IC50 in TZM-bl assay [25]: > 10 µg/mL
IC80 in TZM-bl assay [25]: > 10 µg/mL
IC80 in TZM-bl assay [26]: 0.037 µg/mL
IC50 in TZM-bl assay [27]: > 10 µg/mL
IC80 in TZM-bl assay [27]: > 10 µg/mL
IC50 in TZM-bl assay [28]: 0.259 µg/mL
IC80 in TZM-bl assay [28]: 1.6 µg/mL
IC50 in TZM-bl assay [29]: 0.013 µg/mL
IC80 in TZM-bl assay [29]: 0.041 µg/mL
IC80 in TZM-bl assay [30]: 0.348 µg/mL
IC50 in TZM-bl assay [31]: > 10 µg/mL
IC80 in TZM-bl assay [31]: > 10 µg/mL
IC50 in TZM-bl assay [32]: > 10 µg/mL
IC80 in TZM-bl assay [32]: > 10 µg/mL
IC50 in TZM-bl assay [33]: > 10 µg/mL
IC80 in TZM-bl assay [33]: > 10 µg/mL
IC50 in TZM-bl assay [34]: > 10 µg/mL
IC80 in TZM-bl assay [34]: > 10 µg/mL
IC80 in TZM-bl assay [35]: 0.088 µg/mL
IC50 in TZM-bl assay [36]: > 10 µg/mL
IC80 in TZM-bl assay [36]: > 10 µg/mL
IC80 in TZM-bl assay [37]: 0.037 µg/mL
IC50 in TZM-bl assay [38]: 0.019 µg/mL
IC80 in TZM-bl assay [38]: 0.06 µg/mL
IC50 in TZM-bl assay [39]: > 10 µg/mL
IC80 in TZM-bl assay [39]: > 10 µg/mL
IC50 in TZM-bl assay [40]: 0.02 µg/mL
IC80 in TZM-bl assay [40]: 0.126 µg/mL

354BG8 (antibody)
IC50 in TZM-bl assay [1]: > 10 µg/mL
IC80 in TZM-bl assay [1]: > 10 µg/mL
IC50 in TZM-bl assay [2]: 1.99 µg/mL
IC80 in TZM-bl assay [2]: 9.76 µg/mL
IC50 in TZM-bl assay [3]: > 10 µg/mL
IC80 in TZM-bl assay [3]: > 10 µg/mL
IC50 in TZM-bl assay [4]: 0.002 µg/mL
IC80 in TZM-bl assay [4]: 0.005 µg/mL
IC50 in TZM-bl assay [5]: > 10 µg/mL
IC80 in TZM-bl assay [5]: > 10 µg/mL
IC50 in TZM-bl assay [6]: 0.063 µg/mL
IC80 in TZM-bl assay [6]: 0.239 µg/mL
IC50 in TZM-bl assay [7]: > 10 µg/mL
IC80 in TZM-bl assay [7]: > 10 µg/mL
IC50 in TZM-bl assay [8]: 0.057 µg/mL
IC80 in TZM-bl assay [8]: 0.218 µg/mL
IC50 in TZM-bl assay [9]: 0.038 µg/mL
IC80 in TZM-bl assay [9]: 0.168 µg/mL
IC50 in TZM-bl assay [10]: > 10 µg/mL
IC80 in TZM-bl assay [10]: > 10 µg/mL
IC50 in TZM-bl assay [11]: > 10 µg/mL
IC80 in TZM-bl assay [11]: > 10 µg/mL
IC50 in TZM-bl assay [12]: 0.002 µg/mL
IC80 in TZM-bl assay [12]: 0.005 µg/mL
IC50 in TZM-bl assay [13]: > 10 µg/mL
IC80 in TZM-bl assay [13]: > 10 µg/mL
IC50 in TZM-bl assay [14]: 0.024 µg/mL
IC80 in TZM-bl assay [14]: 0.061 µg/mL
IC50 in TZM-bl assay [15]: > 10 µg/mL
IC80 in TZM-bl assay [15]: > 10 µg/mL
IC50 in TZM-bl assay [16]: > 10 µg/mL
IC80 in TZM-bl assay [16]: > 10 µg/mL
IC50 in TZM-bl assay [17]: 0.415 µg/mL
IC80 in TZM-bl assay [17]: 2.97 µg/mL
IC50 in TZM-bl assay [18]: > 10 µg/mL
IC80 in TZM-bl assay [18]: > 10 µg/mL
IC50 in TZM-bl assay [19]: > 10 µg/mL
IC80 in TZM-bl assay [19]: > 10 µg/mL
IC50 in TZM-bl assay [20]: 0.111 µg/mL
IC80 in TZM-bl assay [20]: 0.828 µg/mL
IC50 in TZM-bl assay [21]: 0.065 µg/mL
IC80 in TZM-bl assay [21]: 0.403 µg/mL
IC50 in TZM-bl assay [22]: 0.091 µg/mL
IC80 in TZM-bl assay [22]: 0.38 µg/mL
IC50 in TZM-bl assay [23]: > 10 µg/mL
IC80 in TZM-bl assay [23]: > 10 µg/mL
IC50 in TZM-bl assay [24]: > 10 µg/mL
IC80 in TZM-bl assay [24]: > 10 µg/mL
IC50 in TZM-bl assay [25]: > 10 µg/mL
IC80 in TZM-bl assay [25]: > 10 µg/mL
IC50 in TZM-bl assay [26]: 0.011 µg/mL
IC80 in TZM-bl assay [26]: 0.039 µg/mL
IC50 in TZM-bl assay [27]: > 10 µg/mL
IC80 in TZM-bl assay [27]: > 10 µg/mL
IC50 in TZM-bl assay [28]: 0.058 µg/mL
IC80 in TZM-bl assay [28]: 0.224 µg/mL
IC50 in TZM-bl assay [29]: 0.018 µg/mL
IC80 in TZM-bl assay [29]: 0.049 µg/mL
IC50 in TZM-bl assay [30]: 0.023 µg/mL
IC80 in TZM-bl assay [30]: 0.086 µg/mL
IC50 in TZM-bl assay [31]: > 10 µg/mL
IC80 in TZM-bl assay [31]: > 10 µg/mL
IC50 in TZM-bl assay [32]: > 10 µg/mL
IC80 in TZM-bl assay [32]: > 10 µg/mL
IC50 in TZM-bl assay [33]: > 10 µg/mL
IC80 in TZM-bl assay [33]: > 10 µg/mL
IC50 in TZM-bl assay [34]: > 10 µg/mL
IC80 in TZM-bl assay [34]: > 10 µg/mL
IC50 in TZM-bl assay [35]: 0.07 µg/mL
IC80 in TZM-bl assay [35]: 0.207 µg/mL
IC50 in TZM-bl assay [36]: > 10 µg/mL
IC80 in TZM-bl assay [36]: > 10 µg/mL
IC50 in TZM-bl assay [37]: 0.014 µg/mL
IC80 in TZM-bl assay [37]: 0.056 µg/mL
IC50 in TZM-bl assay [38]: 0.015 µg/mL
IC80 in TZM-bl assay [38]: 0.043 µg/mL
IC50 in TZM-bl assay [39]: > 10 µg/mL
IC80 in TZM-bl assay [39]: > 10 µg/mL
IC50 in TZM-bl assay [40]: 0.035 µg/mL
IC80 in TZM-bl assay [40]: 0.126 µg/mL
